Test: label from the status in PepcDB records

| Sequence | protein production |
| --- | --- |
| MTGVFLPPLPPSLRLQIKTMAESILPNAIRSQSQPQAFVQVEVWIRRLVWKIVIATVLLMAVGSATRVMNAGLACPDWPLCYGQWVPSQQMNLQVFLEWFHRLDAALIGFSTLILVGLSWWFRRVLPKWLPWATLGSLALILVQGLLGGLTVIELLRFDIVTAHLGTAMAFLGSLVIIGLCLMPYQSNQTAGKLRPVALASTTIIYLQCLLGGLVGSQWAAHQCLAIAGTQFCQVLHSHLLGVLPTVLGVGLTFWCTRRTPALNPFLRQLGNGALALLGGQILLGVATLKLHLQIEPLTVAHHTVGICLWATLLAIAVLAVRDHRPTAPITS | failed |
| MTHLKIFLLLIVCALSVLDGKAQTGIALTDELNGKRIGVIGDSYVRNHKEPFENTWHYKFAKKHGMEYFNYGKNGNSIAYSSPRWGKAMYLRYAEMADSLDYVIVIGGHNDAFKLDSIGGIDNFKDKMEILCKGLVEKYPTAKIFFFTRWNCKNFKGSDSEKVVDAMIEVCGNYSIPIFDCARKGSIYADNDTFRRIYFQKSKNNTDTAHLNSKGHDRFLKVAESFLLQYLEHHHHHH | failed |
| MTHVTLRSEFETLIDPYAPVAQVGTGFDFTEGPIWHPIDHYLLFSDMPGDVRRRWDARRGMAEVKRPSNKCNGMTYDAELNLIVCEHATSSLIRERPDGRREVLASHFGGQELNSPNDVCVHSSGAIYFSDPWYGRMPVYGVERPRQLGFQGVYRVMPGGEPKLVVDRNLFDQPNGLCFSPDERLLYVNDTVQALIRVFDVNADGTLSNARVFASSIKSELEPGLPDGMKCDQHGNVWVTAPGGVWVYSPRGELLGKVRVPELVANLAWGGPDFRTLYLTSTHSVYAIPTRVGPRHEPYMSGRRGGAGASAGPAAAAPILTDGEMRLDPQRCAMIIQDLQNDVIMDGGAFDGSGAPAHAKQQHVVENVRRLAEAARARGVAIIHVWFVVEPGAPGVTLNAPLFEGLVDSKAMVRGSWGAAPVSGLEPRPGDFVVEKMRMSAWEGTRLETILKATGRDMIINTGAWTNMSVEHTARTGADKGYFMIVPEDCCSTMNADWHSASINFAMQNVAIVTRADAVIRALG | failed |
| MTHYHFVGIKGSGMSSLAQIMHDLGHEVQGSDIESYVFTEVALRNKGIKILPFDANNITKEMVVIQGNAFPDNHEEIVRAHELKLDIIKYHDFLGHVINQYTSVAVTGAHGKTSTTGLLSHVMNGDKKTSFLIGDGTGMGLPGSDYFAFEACEYRRHFLSYHPDYAIMTNIDFDHPDYFKNIDDVYDAFQHMALNVKKGIIAWGDDEYLRKLDVDIPVYYYGFKETDDIYAKNIQITEKGTQFDVYIKGEFYDQFLSPQYGNHNILNALAVIAISYLEDMNVENIKEALITFGGVKRRFNETKVSNQVIVDDYAHHPREISATIETARKKYPQKDVVAVFQPHTFSRTQAFLNEFAESLSKADQVFLCEIFGSIRENTGDLTIEDLINRIDGSTLIDENSIDVLEKFDNAVILFMGAGDIQKLLKAYFEKLGVKNDF | failed |
| MTIADIVMLTATIIIWSLLIVNILLVIFGYVYYLKTDPVAPPPVEDEDAPFVSIMVPAHNEGIVIVRTVEALLNFNYPQDRYEIIVINDNSSDNSAELLANVQKKAVNRNLQIINTDNITGGKGKSNALNIGFKQAKGDVIAIYDADNTPEPNALRYLVGELIASEEYGAVIGKFRTRNRNASLLTRFINIETLAFQWMAQAGRFQLFKLCTIPGTNFIVRRSIIEAIGGWDDKALAEDTEISFRIYMMGYKIKFQPKAVTWEQEPQTLSVWFRQRTRWVKGNIYVIVKNAKLLFNPKASRIRFDILYFLSIYFLLMTSLVLSDIMLVLSMSGYLTTTLQGFSNSLWLLAILLFIFSTFVSITTEKGEMTLENILIIALMYITYSQMWLVVAAYGMVMYIKENVFHKQTQTKWYKTERFK | failed |
| MTIFRFADGNSMTTKTNLLPHIPSSDAIISRWRWLAIIVSLVMALLASAFILLLSNAVDREVAQLNTSSELREQADLVLISLIDMAVADRSYAKNHKAEDKARFEHAARNLDDILEYIELIVYAHPQWYEWFTSFKKEVEARKAFMNDHMRALDALPDQSSQPSSSSEIPKIQVARLAQLMTSFINGDDVVRQKQREGIALMRAALTLAAIVSVVSTFMSAYFVINRFHRDVRSLKMYQLLLHSENIALEARVKERTQELERARNHAEKERQRVEMLLQDVSHRIGNSLGTVSSLLGLQLNRSDNEEVRSVLGAARDRIQTISTAHRRLRLSDDMETTLLAEFLSSVVHDVELAMPLELRENITIHTNFKECRLSSRDATTLGIILGELLTNSLKHAFPDKRSGDIYISFGPQKNGQLMLIVEDNGVGMKNQTQEKKTGLGRVVVEQLCMQFGEKPLFETSALGGTKIVIPLPKLTPNASKEAYA | failed |
| MTIKTLDISPVGRVEGDLDVRVEIEDGQVVNAWTHAELFRGFEIILRGKDPQAGLIVTPRICGICGASHLTSASWALDTAWNTTVPRNAILARNLGQIVETIQSIPRYFYGLFAIDLTNKKYRSSRFYDEAVRRFAAFTGKSYELGVTISSKPVEIYALFGGQWPHSSYMVPGGVMCAPTLTDITRAWAILEYFRTNWLEPVWLGCSLERYEEIQTYDDFMDWLEADIKHRESDLGFYWRMGLDIGLDRYGAGVGKYVSWGYLPHEDKYQKPTIEGRNAAMIMKSGVYDSFSDTHTLMDHTFARENTTHSWYDEGNADVHPFDRTTKPTQKNTKDFKNAYSWSTAVLHQDFGRLEVGPLARQLVAGGQHGESWQHYDGFILDAFQKMGGASIHLRQLARVHEIVKLYRQAERCLREFVLNDPWYIKPKEKDGRGWGATEASRGSLCHWIDIEGGKIKNYQVIAATTWNVGPRDSEGVRGPIEEALIGTPIEDSRDPVEVGHVARSFDSCLVCTVHAHDAKTGEELARFRTA | failed |
| MTILSAALLLFLILDPLGNIPVFLSVLKPLPPKRQRFVLARELLIALCVLMAFLWGGKYALELMHLRQESVAIAGGIVLFVIGIRMIFPRPEGLMGEIPDGEPFIVPLAIPLVAGPSGMAAVMLMGSNEPTRLWDWSLALMIAWIGASSILAAAPLLYKLLGHRALTAIERLMGMLLVAISVQMFLDGLGTYFKLPVSI | failed |
| MTILVEHFVPDSRVDEKKVIEERDNELVLDGGFVVPKSKETDAFDAPDMNFLGHSFRDYENGESERQQGVEEFYRMQHIHQTYDFVKKMRKEYGKLNKMEMSIWECCELLNNVVDESDPDLDEPQIQHLLQTAEAIRRDYPDEDWLHLTALIHDLGKVLLLPEFGGLPQWAVVGDTFPVGCTFDSANIHHKYFKGNHDINNPKYNTKNGVYTEGCGLDNVLMSWGHDDYMYLVAKKNGTTLPHAGLFIIRYHSFYPLHKAGAYTHLMNDEDRDDLKWLHVFNKYDLYSKSKVLVDVEQVKPYYISLINKYFPAKLKW | failed |
| MTIMTARFASILLGGCLAASLFSGPVFAVGNDNSTMPTCKKGEIYDQKTKKCVKQQSANVSDENRTDYAYSLAKAGRYEEALAMLDTVKDQNSAEVLNYRGYATRKLGRTDEGISYYLQSVKMDPQYAKVREYLGEAYVIKGRLDLAKEQLTTIKAICGTACEEYQDLNAAILNPSKI | failed |
| MTIPELPKDLIEEILCYVPATYLKRLRSTCKGWNRLFKDDRRFAKKHYDKAAKQFLPLMSTNEELCAMSVNLHGTIPSLEVKDKPWLFVSDSKHCDIEISRIFHSGGLLLCFSRDGEISIIVWNPLTSETRLIRTRNRRDKGRNFVLGYYQEDKKTYYKILSFYLDSKDFEIFEFNSDSWRFIDDICPGLSLLYSDQCVSLKGNTYMFAIDDLSVSLLKYDFSTETSVPVPLPYKSRSFEAISLSVVREEKLSVLLQRDKSSKTEIWVTNVIDETTTKVMVVSWSKVLSLDLSPDLKIRYGESFLLDEEKKVIMIFNNRMEEENKSEDKLYIIGDDDNKATQVYTIHGYGPAVFNYFPSLVQIEQSSRQEEKS | failed |

Reference: a protein production outcome set (Wang et al. 2014)
